Source: the supplement of paper PMC12338614

B1: library; numbered along this chain (parent)
chain: MEVVDPQQLGMFTEGELMSVGMDTFIHRIDSTEVIYQPRRKRAKLIGKYLMGDLLGEGSYGKVKEVLDSETLCRRAVKILKKKKLRRIPNGEANVKKEIQLLRRLRHKNVIQLVDVLYNEEKQKMYMVMEYCVCGMQEMLDSVPEKRFPVCQAHGYFCQLIDGLEYLHSQGIVHKDIKPGNLLLTTGGTLKISDLGVAEALHPFAADDTCRTSQGSPAFQPPEIANGLDTFSGFKVDIWSAGVTLYNITTGLYPFEGDNIYKLFENIGKGSYAIPGDCGPPLSDLLKGMLEYEPAKRFSIRQIRQHSWFRKKHPPAEAPVPIPPSPDTKDRWRSMTVVPYLEDLHGADEDEDLFDIEDDIIYTQDFTVPGQVPEEEASHNGQRRGLPKAVCMNGTEAAQLSTKSRAEGRAPNPARKACSASSKIRRLSACKQQ

Variants of: B1
Test: STK11 functional score (HeLa growth suppression), rescaled enrichment; synonymous median = 1, nonsense median = 0 (normalised score)
Details: with HeLa; variant type: missense
Procedure, shortened: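 The values are functional scores: wild-type-corrected log ratios of post- versus pre-selection abundance, rescaled to synonymous and nonsense medians, merged over codons and replicate transfections, and carrying bootstrapped error. They derive from codon-randomised (POPCode), codon-optimised STK11 libraries that Bxb1 integrated at an AAVS1 landing pad in HeLa, with three transfections for each of three regions. Sequencing of tiled gDNA amplicons ran on NextSeq, at ~2 million reads per tile.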

STK11 functional score: each site, then its substitutions
I111: Q 1.66, Y 0.97, W -0.448, D 1.6, R 1.16, M 0.886, L 0.392, F 0.365, P 1.25, G 0.385, S 0.535, T 0.687, V 0.948
E121: P 1.66, D 0.812, Y 1.36, S 1.17, F 0.824, I 1.42, K 0.738, Q 1.08, T 1.13, L 1.43, W 0.251, R 1.31, M 0.84, A 0.765, G 1.18, N 1.57, V 1.41
Y126: M 0.654, C 0.357, T -0.0466, V 0.762, F 0.719, P -0.144, A 1.21, R 0.256, W 0.105, G 0.669, L 0.421, H 0.681, S 0.6
L113: D -0.168, H 0.781, A 0.492, Q 1.02, I 0.313, V 0.44, C 1.16, Y 1.67, W 0.222, G 0.252, P 0.54, S 0.517, E 1.13, R 0.684
V128: P -0.00512, C 1.15, N 1.28, I 1.63, G 0.233, F 1.13, A 0.438, L 0.945, H 0.71
N109: D 0.477, S 0.492, M 0.647, V 0.132, K 1.14, T 0.928, I 0.256, A 0.625, R 0.707, Q 0.886, W 0.336, G 0.374, P -0.121, L 0.662, H -0.0132
Q123: Y 1.01, I 0.581, L 0.679, E 1.15, H 1.11, K 0.3, P 0.451, C 1.35, S 1.49, G 0.98, V 0.961, W 0.588, F 0.854, A 1.11, D 0.981, M 1.6, T 1.27, R 0.312
L117: K 1.3, E 1.45, H 1.05, N 1.44, W 1.29, A 1.27, S 0.291, R 1.15, G 0.823, P 0.386, Y 1.55, Q 1.33, T 0.762, F 0.858, V 0.689
M127: I 0.605, V 0.95, E 1.59, W 0.627, P 0.82, G 0.516, N 1.63, Y 1.24, S 0.857, L 0.382, A 1.5, H 1.63, T 1.32, D 0.289, R 0.302
V114: A 0.829, C 0.202, S 0.384, F 1.03, Y 1.59, W 0.805, T 1.43, R 0.501, P 0.872, D 1.17, L 0.271
E120: R 0.779, N 1.68, L 1.38, G 1.26, I 1.55, Q 1.16, F 1.52, A 0.817, M 1.11, Y 0.964, H 1.66, T 1.43, C 0.373, S 1.42, P 1.42, W 0.626, V 1.09
D115: E 1.27, S 1.6, L 1.19, V 1.27, P 0.396, M 1.06, W 0.727, G 0.497, N 1.65, R 1.52, Y 0.294
H107: V 0.138, L 0.324, S 0.803, E 0.776, W 0.165, F 0.159, T 1.02, A 0.964, I 0.0231, Y 0.262, G 0.812, P 0.25, M 0.523, R 0.205
V116: E 1.52, G 0.415, L 1.14, N 0.962, W 0.541, H 1.18, C 0.415, R 0.888, I 0.327, P 0.975, S 0.887, A 0.197
L105: Y 1.36, W 0.397, V 0.842
K124: S 0.355, N 1.27, W 0.166, H 1.3, L 0.951, G 1.04, D 0.919, A 1.13, Q 1.61, V 1.06, I 1.51, Y 1.25, P 0.692, R 1.18
K122: T 1.61, L 1.43, A 1.18, F 1.25, P 1.68, S 1.65, W 1.4, V 0.86, C 1.46, D 1.52, Q 0.235, M 1.25, R 1.69, E 0.911, N 1.51, H 1.68
V110: P 0.481, L 1.23, H 0.958, D 0.338, Y 0.623, S 0.535, E -0.206, G 0.297, T 1.51, A 0.184, M 0.358, C 0.955, R -0.0313, W 0.328, I 0.703, N 0.651
M125: D 0.704, P 0.267, L 1, R 0.355, A 1.14, G 1.03, S 0.769, W 1.25, H 0.857, Y 1.31, I 1.11, V 0.78, Q 1.68, K 1.04
K108: L 1.1, D 0.31, H 1.26, N 1.29, W 0.834, G 0.95, R 1.33, V 0.939, S 0.866, P 1.35, Q 1.39, I 1.43, A 1.25, F 1.04, T 1.33
N119: T 1.42, I 1.51, G 0.965, H 1.3, D 0.736, F 1.16, K 1.18, W 1.58, M 0.408, E 0.994, L 1.17, R 1.26, A 1.44, S 0.694, V 0.707, P 1.37, Y 1.12
Y118: I 1.32, Q 1.52, T 1.61, L 0.633, V 0.988, P 1.3, N 0.286, S 0.99, C 0.723, M 1.62, E -0.175, R 1.04, W 0.378, H 1.14, F 0.519, G 1.23, K 0.568, A 0.627
Q112: G 0.967, I 1.52, Y 1.01, V 1.01, R 0.64, A 1.24, P 1.24, T 1.27, S 1.1, N 1.55, F 1.11, W 0.604, M 0.897, L 1.08
R106: I 1.71, G 0.687, S 1.49, T 1.69, H 1.62, A 1.45, Y 1.64, E 1.63, M 1.59, L 1.15, V 1.6, P 1.14, F 1.56
